Laboratory results published in the supplement of paper PMC9112550, “Optimization of the antimicrobial peptide Bac7 by deep mutational scanning” (BMC Biology, 2022).

Test system: Escherichia coli TOP10
Assay: shrunken log2 fold change of peptide-encoding DNA abundance (4.5 h post-induction vs induction); higher = less antimicrobial activity (less host growth inhibition)
Details: time post-induction: 4.5 h; library: site-saturation at positions 5, 18, 19, 20
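Note: peptides expressed intracellularly from a pBAD plasmid library in pooled LB shake-flask culture, induced with 0.3% L-arabinose, DNA abundance read by NGS, three biological replicates, DESeq2 with apeglm shrinkage.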

RRIRTRPPRLPRPRPRPLLTPRP
shrunken log2 fold change: -0.0897

RRIRCRPPRLPRPRPRPTVDPRP
shrunken log2 fold change: 0.337

RRIRCRPPRLPRPRPRPRTFPRP
shrunken log2 fold change: -0.24

RRIRVRPPRLPRPRPRPHYHPRP
shrunken log2 fold change: -0.397

RRIRFRPPRLPRPRPRPWSFPRP
shrunken log2 fold change: -0.34

RRIRKRPPRLPRPRPRPRKHPRP
shrunken log2 fold change: 0.328

RRIRGRPPRLPRPRPRPWPHPRP
shrunken log2 fold change: 0.074

RRIRNRPPRLPRPRPRPPCRPRP
shrunken log2 fold change: -0.0266

RRIRKRPPRLPRPRPRPVIVPRP
shrunken log2 fold change: -0.0233

RRIRHRPPRLPRPRPRPTVSPRP
shrunken log2 fold change: -0.0706

RRIRSRPPRLPRPRPRPEVCPRP
shrunken log2 fold change: 0.11

RRIRLRPPRLPRPRPRPRTEPRP
shrunken log2 fold change: 0.0352

RRIRKRPPRLPRPRPRPAHYPRP
shrunken log2 fold change: 0.123

RRIRRRPPRLPRPRPRPEITPRP
shrunken log2 fold change: 0.0455

RRIRCRPPRLPRPRPRPCGTPRP
shrunken log2 fold change: -0.306

RRIRRRPPRLPRPRPRPDLVPRP
shrunken log2 fold change: 0.0743

RRIRKRPPRLPRPRPRPFFPPRP
shrunken log2 fold change: 0.967

RRIRCRPPRLPRPRPRPPHGPRP
shrunken log2 fold change: 0.499

RRIRERPPRLPRPRPRPPSEPRP
shrunken log2 fold change: 0.156

RRIRQRPPRLPRPRPRPIDGPRP
shrunken log2 fold change: 0.0784

RRIRRRPPRLPRPRPRPLFHPRP
shrunken log2 fold change: 0.0745

RRIRERPPRLPRPRPRPMGQPRP
shrunken log2 fold change: -0.0667

RRIRVRPPRLPRPRPRPDETPRP
shrunken log2 fold change: 0.126

RRIRYRPPRLPRPRPRPEPTPRP
shrunken log2 fold change: 0.0581

RRIRGRPPRLPRPRPRPPGIPRP
shrunken log2 fold change: 0.745

RRIRSRPPRLPRPRPRPHNMPRP
shrunken log2 fold change: -0.798

RRIRMRPPRLPRPRPRPLGPPRP
shrunken log2 fold change: 0.716

RRIRERPPRLPRPRPRPDTVPRP
shrunken log2 fold change: 0.37

RRIRPRPPRLPRPRPRPAAVPRP
shrunken log2 fold change: 0.41

RRIRRRPPRLPRPRPRPIDVPRP
shrunken log2 fold change: -0.00284

RRIRKRPPRLPRPRPRPNCMPRP
shrunken log2 fold change: -0.0663

RRIRSRPPRLPRPRPRPMTHPRP
shrunken log2 fold change: -0.469

RRIRHRPPRLPRPRPRPQMTPRP
shrunken log2 fold change: -0.104

RRIRNRPPRLPRPRPRPMDLPRP
shrunken log2 fold change: 0.00408

RRIRQRPPRLPRPRPRPFQMPRP
shrunken log2 fold change: -0.214

RRIRRRPPRLPRPRPRPSNGPRP
shrunken log2 fold change: -0.296

RRIRTRPPRLPRPRPRPNVPPRP
shrunken log2 fold change: -0.0447

RRIRKRPPRLPRPRPRPADHPRP
shrunken log2 fold change: 0.111

RRIRYRPPRLPRPRPRPMRVPRP
shrunken log2 fold change: 0.135

RRIRGRPPRLPRPRPRPRIGPRP
shrunken log2 fold change: 0.779

RRIRTRPPRLPRPRPRPEKLPRP
shrunken log2 fold change: -0.0188

RRIRWRPPRLPRPRPRPRGQPRP
shrunken log2 fold change: 0.302

RRIRHRPPRLPRPRPRPTARPRP
shrunken log2 fold change: 0.156

RRIRMRPPRLPRPRPRPPTKPRP
shrunken log2 fold change: 0.508

RRIRYRPPRLPRPRPRPSDMPRP
shrunken log2 fold change: -0.00973

RRIRGRPPRLPRPRPRPCYAPRP
shrunken log2 fold change: 0.128

RRIRNRPPRLPRPRPRPQRNPRP
shrunken log2 fold change: -0.109

RRIRQRPPRLPRPRPRPTKPPRP
shrunken log2 fold change: 0.0859

RRIRLRPPRLPRPRPRPIQMPRP
shrunken log2 fold change: -0.0252

RRIRKRPPRLPRPRPRPATLPRP
shrunken log2 fold change: 0.312

RRIRHRPPRLPRPRPRPMDQPRP
shrunken log2 fold change: -0.0412

RRIRGRPPRLPRPRPRPWKFPRP
shrunken log2 fold change: -0.211

RRIRKRPPRLPRPRPRPEKFPRP
shrunken log2 fold change: -0.0568

RRIRRRPPRLPRPRPRPNKLPRP
shrunken log2 fold change: -0.138

RRIRWRPPRLPRPRPRPMTIPRP
shrunken log2 fold change: 0.025

RRIRPRPPRLPRPRPRPKWVPRP
shrunken log2 fold change: 0.111

RRIRYRPPRLPRPRPRPARNPRP
shrunken log2 fold change: -0.0503

RRIRGRPPRLPRPRPRPKVAPRP
shrunken log2 fold change: 0.538

RRIRFRPPRLPRPRPRPIQPPRP
shrunken log2 fold change: 0.137

RRIRNRPPRLPRPRPRPDWKPRP
shrunken log2 fold change: -0.11

RRIRFRPPRLPRPRPRPYKVPRP
shrunken log2 fold change: -0.614

RRIRLRPPRLPRPRPRPAFYPRP
shrunken log2 fold change: 0.903

RRIRARPPRLPRPRPRPMPIPRP
shrunken log2 fold change: 0.708

RRIRLRPPRLPRPRPRPHLWPRP
shrunken log2 fold change: 0.0492

RRIRFRPPRLPRPRPRPKTQPRP
shrunken log2 fold change: 0.397

RRIRERPPRLPRPRPRPKPRPRP
shrunken log2 fold change: 0.467

RRIRQRPPRLPRPRPRPADEPRP
shrunken log2 fold change: -0.101

RRIRFRPPRLPRPRPRPNANPRP
shrunken log2 fold change: -0.0822

RRIRCRPPRLPRPRPRPHSYPRP
shrunken log2 fold change: -0.272

RRIRIRPPRLPRPRPRPYVMPRP
shrunken log2 fold change: -0.274

RRIRRRPPRLPRPRPRPSPNPRP
shrunken log2 fold change: 0.396

RRIRIRPPRLPRPRPRPYTSPRP
shrunken log2 fold change: -0.434

RRIRSRPPRLPRPRPRPPRYPRP
shrunken log2 fold change: -0.0232

RRIRRRPPRLPRPRPRPLYIPRP
shrunken log2 fold change: -0.466

RRIRFRPPRLPRPRPRPYDMPRP
shrunken log2 fold change: -0.209

RRIRYRPPRLPRPRPRPNTGPRP
shrunken log2 fold change: -0.195

RRIRWRPPRLPRPRPRPFNPPRP
shrunken log2 fold change: -0.389

RRIRERPPRLPRPRPRPSCTPRP
shrunken log2 fold change: -0.815

RRIRCRPPRLPRPRPRPDDTPRP
shrunken log2 fold change: -0.36

RRIRTRPPRLPRPRPRPVCQPRP
shrunken log2 fold change: 2.97

RRIRDRPPRLPRPRPRPPHSPRP
shrunken log2 fold change: 0.279

RRIRWRPPRLPRPRPRPIWRPRP
shrunken log2 fold change: 0.628

RRIRYRPPRLPRPRPRPKNGPRP
shrunken log2 fold change: 0.013

RRIRARPPRLPRPRPRPSDPPRP
shrunken log2 fold change: -0.0252

RRIRIRPPRLPRPRPRPNHKPRP
shrunken log2 fold change: -0.857

RRIRLRPPRLPRPRPRPTFDPRP
shrunken log2 fold change: -0.173

RRIRIRPPRLPRPRPRPQHPPRP
shrunken log2 fold change: -0.176

RRIRRRPPRLPRPRPRPANCPRP
shrunken log2 fold change: 0.00326

RRIRYRPPRLPRPRPRPVYFPRP
shrunken log2 fold change: -1.42

RRIRLRPPRLPRPRPRPVHPPRP
shrunken log2 fold change: 0.039

RRIRYRPPRLPRPRPRPDNVPRP
shrunken log2 fold change: -0.0165

RRIRIRPPRLPRPRPRPNKAPRP
shrunken log2 fold change: 0.0028

RRIRTRPPRLPRPRPRPIMAPRP
shrunken log2 fold change: -0.281

RRIRVRPPRLPRPRPRPTNTPRP
shrunken log2 fold change: -0.175

RRIRIRPPRLPRPRPRPARTPRP
shrunken log2 fold change: 0.0599

RRIRIRPPRLPRPRPRPNDVPRP
shrunken log2 fold change: -0.0102

RRIRWRPPRLPRPRPRPLWPPRP
shrunken log2 fold change: 0.275

RRIRRRPPRLPRPRPRPWFAPRP
shrunken log2 fold change: 0.204

RRIRRRPPRLPRPRPRPCFMPRP
shrunken log2 fold change: -0.207

RRIRKRPPRLPRPRPRPTTAPRP
shrunken log2 fold change: 0.271

RRIRWRPPRLPRPRPRPVYQPRP
shrunken log2 fold change: -0.196

RRIRFRPPRLPRPRPRPINRPRP
shrunken log2 fold change: 0.0882

RRIRTRPPRLPRPRPRPVDKPRP
shrunken log2 fold change: -0.362

RRIRVRPPRLPRPRPRPKGMPRP
shrunken log2 fold change: 0.109

RRIRVRPPRLPRPRPRPGFFPRP
shrunken log2 fold change: 0.0758

RRIRMRPPRLPRPRPRPKADPRP
shrunken log2 fold change: 2.35

RRIRQRPPRLPRPRPRPSSSPRP
shrunken log2 fold change: -1.39

RRIRIRPPRLPRPRPRPHGFPRP
shrunken log2 fold change: -0.383

RRIRMRPPRLPRPRPRPDHMPRP
shrunken log2 fold change: 0.0296
